Patent publication US20120232127A1, “REGULATION OF NEUROTRANSMITTER RELEASE THROUGH ANION CHANNELS” (KOREA INSTITUTE OF SCIENCE AND TECHNOLOGY, priority 2008, published 2012)

Experiments:
[1] = system: intracellular Ca2+ in cultured astrocytes; test: Ca2+ imaging of TFLLR-induced [Ca2+]i transient in cultured astrocytes; type: cell-based, mouse; conditions: shRNA expressing astrocytes, sniffer patch, TFLLR
Method: The External solution was comprised of (in mM) 150 NaCl, 10 HEPES, 3 KCl, 2 CaCl2, 2 MgCl2, 5.5 glucose, at pH 7.3 (˜320 mOsm). For voltage clamp recordings, the internal solution contained 25 μg/ml gramicidin D and (in mM) 75 Cs2SO4, 10 NaCl, 0.1 CaCl2, and 10 HEPES, at pH 7.1 (˜310 mOsm). For current clamp recordings, the internal solution contained 25 μg/ml gramicidin D and (in mM) 75 K2SO4, 10 KCl, 0.1 CaCl2, and 10 HEPES, at pH 7.1 (˜310 mOsm). Pipette resistances ranged from 5 to 8 MΩ. For perforated patch clamp, it took 20 to 30 min to achieve acceptable perforation, with final series resistances ranging from 15 to 40 MΩ.
To test if activation of PAR1 by its specific agonist (e.g., TFLLR) causes any change in membrane conductance that might contribute to glutamate release from astrocytes, the whole cell currents and intracellular Ca^2+ responses in cultured astrocytes under gramicidin-D perforated patch configuration were simultaneously recorded (FIG. 1a). This technique minimized dialysis of intracellular ions.

[2] = target: T1, astrocytic CAAC / mBest1 channel (glutamate release) (Mus musculus, UniProt O88870, R255K); test: Sniffer patch: astrocyte to GluR1 (L497Y)-expressing HEK293T cell pairs, TFLLR-induced glutamate release; type: cell-based; conditions: sniffer patch, lentiviral shRNA expressing astrocytes, TFLLR
T1 construct: endogenous in cells; host or cells: cultured mouse cortical astrocytes
T1 sequence (O88870 1-551 R255K): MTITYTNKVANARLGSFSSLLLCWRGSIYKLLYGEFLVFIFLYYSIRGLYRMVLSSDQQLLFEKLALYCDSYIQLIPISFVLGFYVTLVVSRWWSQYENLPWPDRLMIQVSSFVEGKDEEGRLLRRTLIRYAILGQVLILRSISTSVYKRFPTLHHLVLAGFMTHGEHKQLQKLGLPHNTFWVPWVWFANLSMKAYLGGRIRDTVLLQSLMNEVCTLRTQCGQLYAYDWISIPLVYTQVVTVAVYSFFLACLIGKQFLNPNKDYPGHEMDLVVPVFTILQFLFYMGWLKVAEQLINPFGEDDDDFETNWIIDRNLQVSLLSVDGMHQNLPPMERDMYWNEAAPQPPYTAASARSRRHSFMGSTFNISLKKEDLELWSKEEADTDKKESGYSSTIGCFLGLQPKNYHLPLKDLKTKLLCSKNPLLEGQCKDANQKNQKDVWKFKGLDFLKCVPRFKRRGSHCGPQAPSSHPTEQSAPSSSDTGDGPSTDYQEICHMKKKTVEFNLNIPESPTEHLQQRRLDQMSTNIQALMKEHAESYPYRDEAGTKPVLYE
Method: The sniffer patch technique, which is used for determining whether or not one is permeable to glutamate, was performed as described in Lee, C. J. et al. Astrocytic control of synaptic NMDA receptors. J Physiol 581, 1057-81 (2007), which is hereby incorporated by reference for all purposes as if fully set forth herein.
2. In experiments using astrocyte-HEK293T cell pairs, the sniffer patch techniques used naïve, scrambled- or mBest1-specific shRNA expressing (with GFP) astrocytes as a glutamate source; and GluR1 (L497Y) expressing HEK293T cells (with DsRED) as a detector. After obtaining gigaohm sealing, GluR1 (L497Y)-expressing cell was firstly ruptured, and then counterpart astrocytes were pressure-applied with 500 uM of TFLLR to evoke an increase in astrocytic intracellular Ca^2+ and resulting glutamate release onto the adjacent HEK293T cells.
GluR1LY-expressing detector cells were patched with the pipette solution pH 7.3 containing 110 mM CsGluconate, 30 mM CsCl, 5 mM HEPES, 4 mM NaCl, 2 mM MgCl2, 5 mM EGTA, and 1 mM CaCl2. The percentage of GluR1 (L497Y)-mediated current to the full activation level was analyzed by dividing the current amplitude of GluR1 (L497Y) current obtained through sniffer patch measurement by that of fully activated GluR1 (L497Y) current in the same cells.
The glutamate release through astrocytic CAACs was examined by using “sniffer-patch” technique and recording real-time glutamate release from cultured astrocytes (FIG. 10a). Using this technique, the present inventors observed that TFLLR-induced astrocytic glutamate release into an adjacent HEK293T cells expressing the non-desensitizing AMPA receptor subunit GluR1 (L497Y) mutant evoked an inward current sensitive to AMPA receptor antagonists, which is interpreted to reflect release of glutamate. The effects of TFLLR on current responses in transfected HEK293T cells was blocked by the treatment of niflumic acid (% block by niflumic acid=66.6±5.7%, FIGS. 10d to 10f), which is consistent with the idea that astrocytic CAAC is permeable to glutamate.

B1: mBest1 shRNA: mBest1-specific short hairpin RNA, SEQ ID NO: 3 and 4 (lentiviral: SEQ ID NO: 30), nucleotides 563-582 of mBest1 (nucleic acid)
chain 1: GATCCCCTTGCCAACTTGTCAATGAATTCAAGAGATTCATTGACAAGTTGGCAATTTTTA
chain 2: GGGAACGGTTGAACAGTTACTTAAGTTCTCTAAGTAACTGTTCAACCGTTAAAAATTCGA
increase in astrocytic intracellular Ca2+ [1]: unaffected | percentage of GluR1 (L497Y)-mediated current to the fully activated GluR1 (L497Y) current by 1 mM glutamate [2]: 4.2±1.2%
